In the assay the target is T1, Biotinylated-MTSP1 (Homo sapiens, UniProt Q9Y5Y6).
T1 sequence (Q9Y5Y6 615-855 limits assumed): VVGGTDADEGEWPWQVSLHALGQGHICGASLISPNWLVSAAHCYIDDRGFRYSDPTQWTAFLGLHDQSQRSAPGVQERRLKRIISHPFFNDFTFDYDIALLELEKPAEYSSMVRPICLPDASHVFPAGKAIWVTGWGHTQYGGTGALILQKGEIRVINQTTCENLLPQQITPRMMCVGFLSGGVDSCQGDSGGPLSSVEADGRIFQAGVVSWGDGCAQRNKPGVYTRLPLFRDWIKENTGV
Kind of assay: Competition binding assay on sc95/96 coated plate. Conditions: 125 ng/ml Biotinylated-MTSP1; HAI-1 titrated from 2 μg/ml, sc95/96 from 10 μg/ml. The text has this: This experiment was set-up to determine whether or not HAI-1 (the natural inhibitor of MT-SP1) would compete for binding to MT-SP1 with 95/96.
Bound MTSP was then detected with SA-pod.

B1: HAI-1: the natural inhibitor of MT-SP1 (protein, UniProt O43278 36-529, looked up)
Kunitz-type protease …: GPPPAPPGLPAGADCLNSFTAGVPGFVLDTNASVSNGATFLESPTVRRGWDCVRACCTTQNCNLALVELQPDRGEDAIAACFLINCLYEQNFVCKFAPREGFINYLTREVYRSYRQLRTQGFGGSGIPKAWAGIDLKVQPQEPLVLKDVENTDWRLLRGDTDVRVERKDPNQVELWGLKEGTYLFQLTVTSSDHPEDTANVTVTVLSTKQTEDYCLASNKVGRCRGSFPRWYYDPTEQICKSFVYGGCLGNKNNYLREEECILACRGVQGGPLRGSSGAQATFPQGPSMERRHPVCSGTCQPTQFRCSNGCCIDSFLECDDTPNCPDASDEAACEKYTSGFDELQRIHFPSDKGHCVDLPDTGLCKESIPRWYYNPFSEHCARFTYGGCYGNKNNFEEEQQCLESCRGISKKDVFGLRREIPIPSTGSVEMAVAVFLVICIVVVVAILGYCFFKNQRKDFHGHHHHPPPTPASSTVSTTEDTEHLVYNHTTRPL
B1: the “competition for binding of MT-SP1 to sc95/96 coated plate” value was “prevented the binding of MT-SP1 to the plate”.

(Values after US7572444B2, “Binding proteins specific for human matriptase” (Amgen Fremont Inc., priority 2004, dated 2009).)
